Results taken from patent US20040077046.

B1: C-terminally flag epitope-tagged HDAC3 (protein)
chain: MAKTVAYFYDPDVGNFHYGAGHPMKPHRLALTHSLVLHYGLYKKMIVFKPYQASQHDMCRFHSEDYIDFLQRVSPTNMQGFTKSLNAFNVGDDCPVFPGLFEFCSRYTGASLQGATQLNNKICDIAINWAGGLHHAKKFEASGFCYVNDIVIGILELLKYHPRVLYIDIDIHHGDGVQEAFYLTDRVMTVSFHKYGNYFFPGTGDMYEVGAESGRYYCLNVPLRDGIDDQSYKHLFQPVINQVVDFYQPTCIVLQCGADSLGCDRLGCFNLSIRGHGECVEYVKSFNIPLLVLGGGGYTVRNVARCWTYETSLLVEEAISEELPYSEYFEYFAPDFTLHPDVSTRIENQNSRQYLDQIRQTIFENLKMLNHAPSVQIHDVPADLLTYDRTDEADAEERGPEENYSRPEAPNEFYDGDHDNDKESDVEI
B2: C-terminally flag epitope-tagged HDAC4 (protein)
chain: MSSQSHPDGLSGRDQPVELLNPARVNHMPSTVDVATALPLQVAPSAVPMDLRLDHQFSLPVAEPALREQQLQQELLALKQKQQIQRQILIAEFQRQHEQLSRQHEAQLHEHIKQQQEMLAMKHQQELLEHQRKLERHRQEQELEKQHREQKLQQLKNKEKGKESAVASTEVKMKLQEFVLNKKKALAHRNLNHCISSDPRYWYGKTQHSSLDQSSPPQSGVSTSYNHPVLGMYDAKDDFPLRKTASEPNLKLRSRLKQKVAERRSSPLLRRKDGPVVTALKKRPLDVTDSACSSAPGSGPSSPNNSSGSVSAENGIAPAVPSIPAETSLAHRLVAREGSAAPLPLYTSPSLPNITLGLPATGPSAGTAGQQDAERLTLPALQQRLSLFPGTHLTPYLSTSPLERDGGAAHSPLLQHMVLLEQPPAQAPLVTGLGALPLHAQSLVGADRVSPSIHKLRQHRPLGRTQSAPLPQNAQALQHLVIQQQHQQFLEKHKQQFQQQQLQMNKIIPKPSEPARQPESHPEETEEELREHQALLDEPYLDRLPGQKEAHAQAGVQVKQEPIESDEEEAEPPREVEPGQRQPSEQELLFRQQALLLEQQRIHQLRNYQASMEAAGIPVSFGGHRPLSRAQSSPASATFPVSVQEPPTKPRFTTGLVYDTLMLKHQCTCGSSSSHPEHAGRIQSIWSRLQETGLRGKCECIRGRKATLEELQTVHSEAHTLLYGTNPLNRQKLDSKKLLGSLASVFVRLPCGGVGVDSDTIWNEVHSAGAARLAVGCVVELVFKVATGELKNGFAVVRPPGHHAEESTPMGFCYFNSVAVAAKLLQQRLSVSKILIVDWDVHHGNGTQQAFYSDPSVLYMSLHRYDDGNFFPGSGAPDEVGTGPGVGFNVNMAFTGGLDPPMGDAEYLAAFRTVVMPIASEFAPDVVLVSSGFDAVEGHPTPLGGYNLSARCFGYLTKQLMGLAGGRIVLALEGGHDLTAICDASEACVSALLGNELDPLPEKVLQQRPNANAVRSMEKVMEIHSKYWRCLQRTTSTAGRSLIEAQTCENEEAETVTAMASLSVGVKPAEKRPDEEPMEEEPPL

Target: 3H-acetylated histone H4 peptide ([3H]-Ac(H41-24))

Row | Protein | in vitro histone deacetylase assay (release of 3H-acetate from the peptide by immunoprecipitated enzyme)
1 | B1 | HDAC9 could deacetylate the histone peptide substrate at a level that was equivalent to UDAC3 and HDAC4
2 | B2 | HDAC9 could deacetylate the histone peptide substrate at a level that was equivalent to UDAC3 and HDAC4
